{"source": "paper PMC7732827", "about": "“Autoregulation of yeast ribosomal proteins discovered by efficient search for feedback regulation”", "target": "Rpl1B-HIS (Saccharomyces cerevisiae, UniProt P0CX44 1-217)", "sequence (P0CX44 whole entry)": "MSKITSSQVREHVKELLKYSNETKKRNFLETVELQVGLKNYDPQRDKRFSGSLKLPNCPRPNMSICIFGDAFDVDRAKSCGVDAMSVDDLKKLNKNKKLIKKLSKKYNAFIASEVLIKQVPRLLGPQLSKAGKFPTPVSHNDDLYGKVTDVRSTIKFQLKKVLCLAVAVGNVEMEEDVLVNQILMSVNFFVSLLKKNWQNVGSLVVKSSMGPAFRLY", "assay": "EMSA; 20 mM Mg2+; 400 nM RNA, 0.1-1 ug protein in 10 ul; 50 mM Tris-HCl pH 8.5, 350 mM KCl, 20 mM MgCl2, 0.1% NP-40, 10% glycerol, 30 min at 4 C; 7.5% Tris-glycine PAGE in the cold room", "conditions": "protein: recombinant; tags: C-terminal His6 (HHHHHH); label: none (SYBR Green I stain); two hairpins (HP1, HP2), predicted"}
{"binder": "RPL1B-UTR RNA, synthetic (structured_RNA) RNA: AUAGAACUAGUCGCAAGCCUCACGGACCACCAAAUACUUUGGAAGACUAAUUACAUAUCAUAAA", "values": [{"measurement": "binding result", "result": "binds"}]}
